Consider 1 substance from publication PMC2474558.

The target in this assay is hDOP–C352I Gαi2. In words: radioligand binding.

A word on the pKi: it is the negative decadic logarithm of the Ki, by convention in mol/L. Read a high pKi as a low Ki. For “DADLE (D-Ala^2, Leu^5-enkephalin) (peptide)”, the pKi stood at 9.
